Measured values as given in patent US20210071139A1.

Tests used:
Cdc23 = Cdc23 (UniProt Q8BGZ4); assay: anti-TOX IP from EL4 nuclear extract, LC-MS/MS, MiST
Dap3 = Dap3 (UniProt Q9ER88); assay: as above
Ddx55 = Ddx55 (UniProt Q6ZPL9); assay: as above
Dlgap5 = Dlgap5 (UniProt Q8K4R9); assay: as above
Taf6 = Taf6 (UniProt Q62311); assay: as above
Thoc2 = Thoc2 (UniProt B1AZI6); assay: as above
Tpm4 = Tpm4 (UniProt Q6IRU2); assay: as above
Tsr1 = Tsr1 (UniProt Q5SWD9); assay: as above
Acad9 = Acad9 (UniProt Q8JZN5); assay: TOX IP-MS, EL4 nuclear extract, MiST
Acot8 = Acot8 (UniProt P58137); assay: TOX IP-MS, EL4 nuclear extract, MiST
Acsl4 = Acsl4 (UniProt Q9QUJ7); assay: TOX IP-MS, EL4 nuclear extract, MiST
Cad = Cad (UniProt B2RQC6); assay: TOX IP-MS, EL4 nuclear extract, MiST
Cdadc1 = Cdadc1 (UniProt Q8BMD5); assay: TOX IP-MS, EL4 nuclear extract, MiST
Dlst = Dlst (UniProt Q9D2G2); assay: TOX IP-MS, EL4 nuclear extract, MiST
Eif5 = Eif5 (UniProt P59325); assay: TOX IP-MS, EL4 nuclear extract, MiST
Fubp1 = Fubp1 (UniProt Q91WJ8); assay: TOX IP-MS, EL4 nuclear extract, MiST
Fxr1 = Fxr1 (UniProt Q61584); assay: TOX IP-MS, EL4 nuclear extract, MiST
Hcfc1 = Hcfc1 (UniProt Q61191); assay: TOX IP-MS, EL4 nuclear extract, MiST
Jade2 = Jade2 (UniProt Q6ZQF7); assay: TOX IP-MS, EL4 nuclear extract, MiST
Mrpl46 = Mrpl46 (UniProt Q9EQI8); assay: TOX IP-MS, EL4 nuclear extract, MiST
Myef2 = Myef2 (UniProt Q8C854); assay: TOX IP-MS, EL4 nuclear extract, MiST
Ppa1 = Ppa1 (UniProt Q9D819); assay: TOX IP-MS, EL4 nuclear extract, MiST
Pusl1 = Pusl1 (UniProt A2ADA5); assay: TOX IP-MS, EL4 nuclear extract, MiST
Rpl36; Gm8973 = assay: TOX IP-MS, EL4 nuclear extract, MiST
Sdcbp = Sdcbp (UniProt O08992); assay: TOX IP-MS, EL4 nuclear extract, MiST
Srrt = Srrt (UniProt Q99MR6); assay: TOX IP-MS, EL4 nuclear extract, MiST
Zfp219 = Zfp219 (UniProt Q6IQX8); assay: TOX IP-MS, EL4 nuclear extract, MiST
Zfp219, sequence (Q6IQX8 whole entry): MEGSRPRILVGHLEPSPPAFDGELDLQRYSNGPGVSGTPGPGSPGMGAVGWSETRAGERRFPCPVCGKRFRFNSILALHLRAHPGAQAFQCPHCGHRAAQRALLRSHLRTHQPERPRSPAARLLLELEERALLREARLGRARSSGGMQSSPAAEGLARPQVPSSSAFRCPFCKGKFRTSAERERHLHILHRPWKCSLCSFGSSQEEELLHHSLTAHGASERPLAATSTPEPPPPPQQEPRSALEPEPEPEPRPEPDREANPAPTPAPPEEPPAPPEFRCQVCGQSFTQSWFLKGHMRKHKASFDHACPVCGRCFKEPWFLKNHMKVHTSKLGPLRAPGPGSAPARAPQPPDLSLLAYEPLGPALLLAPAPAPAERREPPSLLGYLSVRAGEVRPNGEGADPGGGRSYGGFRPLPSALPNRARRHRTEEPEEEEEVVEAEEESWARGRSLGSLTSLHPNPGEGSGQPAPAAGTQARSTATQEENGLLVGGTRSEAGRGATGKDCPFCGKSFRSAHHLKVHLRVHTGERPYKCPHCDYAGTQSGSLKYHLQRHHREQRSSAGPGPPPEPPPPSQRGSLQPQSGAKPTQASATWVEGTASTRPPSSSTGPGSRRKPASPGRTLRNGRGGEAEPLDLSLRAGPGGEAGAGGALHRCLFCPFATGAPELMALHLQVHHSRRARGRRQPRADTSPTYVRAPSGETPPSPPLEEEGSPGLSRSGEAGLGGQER

Cad, sequence (B2RQC6 2-2225 limits assumed): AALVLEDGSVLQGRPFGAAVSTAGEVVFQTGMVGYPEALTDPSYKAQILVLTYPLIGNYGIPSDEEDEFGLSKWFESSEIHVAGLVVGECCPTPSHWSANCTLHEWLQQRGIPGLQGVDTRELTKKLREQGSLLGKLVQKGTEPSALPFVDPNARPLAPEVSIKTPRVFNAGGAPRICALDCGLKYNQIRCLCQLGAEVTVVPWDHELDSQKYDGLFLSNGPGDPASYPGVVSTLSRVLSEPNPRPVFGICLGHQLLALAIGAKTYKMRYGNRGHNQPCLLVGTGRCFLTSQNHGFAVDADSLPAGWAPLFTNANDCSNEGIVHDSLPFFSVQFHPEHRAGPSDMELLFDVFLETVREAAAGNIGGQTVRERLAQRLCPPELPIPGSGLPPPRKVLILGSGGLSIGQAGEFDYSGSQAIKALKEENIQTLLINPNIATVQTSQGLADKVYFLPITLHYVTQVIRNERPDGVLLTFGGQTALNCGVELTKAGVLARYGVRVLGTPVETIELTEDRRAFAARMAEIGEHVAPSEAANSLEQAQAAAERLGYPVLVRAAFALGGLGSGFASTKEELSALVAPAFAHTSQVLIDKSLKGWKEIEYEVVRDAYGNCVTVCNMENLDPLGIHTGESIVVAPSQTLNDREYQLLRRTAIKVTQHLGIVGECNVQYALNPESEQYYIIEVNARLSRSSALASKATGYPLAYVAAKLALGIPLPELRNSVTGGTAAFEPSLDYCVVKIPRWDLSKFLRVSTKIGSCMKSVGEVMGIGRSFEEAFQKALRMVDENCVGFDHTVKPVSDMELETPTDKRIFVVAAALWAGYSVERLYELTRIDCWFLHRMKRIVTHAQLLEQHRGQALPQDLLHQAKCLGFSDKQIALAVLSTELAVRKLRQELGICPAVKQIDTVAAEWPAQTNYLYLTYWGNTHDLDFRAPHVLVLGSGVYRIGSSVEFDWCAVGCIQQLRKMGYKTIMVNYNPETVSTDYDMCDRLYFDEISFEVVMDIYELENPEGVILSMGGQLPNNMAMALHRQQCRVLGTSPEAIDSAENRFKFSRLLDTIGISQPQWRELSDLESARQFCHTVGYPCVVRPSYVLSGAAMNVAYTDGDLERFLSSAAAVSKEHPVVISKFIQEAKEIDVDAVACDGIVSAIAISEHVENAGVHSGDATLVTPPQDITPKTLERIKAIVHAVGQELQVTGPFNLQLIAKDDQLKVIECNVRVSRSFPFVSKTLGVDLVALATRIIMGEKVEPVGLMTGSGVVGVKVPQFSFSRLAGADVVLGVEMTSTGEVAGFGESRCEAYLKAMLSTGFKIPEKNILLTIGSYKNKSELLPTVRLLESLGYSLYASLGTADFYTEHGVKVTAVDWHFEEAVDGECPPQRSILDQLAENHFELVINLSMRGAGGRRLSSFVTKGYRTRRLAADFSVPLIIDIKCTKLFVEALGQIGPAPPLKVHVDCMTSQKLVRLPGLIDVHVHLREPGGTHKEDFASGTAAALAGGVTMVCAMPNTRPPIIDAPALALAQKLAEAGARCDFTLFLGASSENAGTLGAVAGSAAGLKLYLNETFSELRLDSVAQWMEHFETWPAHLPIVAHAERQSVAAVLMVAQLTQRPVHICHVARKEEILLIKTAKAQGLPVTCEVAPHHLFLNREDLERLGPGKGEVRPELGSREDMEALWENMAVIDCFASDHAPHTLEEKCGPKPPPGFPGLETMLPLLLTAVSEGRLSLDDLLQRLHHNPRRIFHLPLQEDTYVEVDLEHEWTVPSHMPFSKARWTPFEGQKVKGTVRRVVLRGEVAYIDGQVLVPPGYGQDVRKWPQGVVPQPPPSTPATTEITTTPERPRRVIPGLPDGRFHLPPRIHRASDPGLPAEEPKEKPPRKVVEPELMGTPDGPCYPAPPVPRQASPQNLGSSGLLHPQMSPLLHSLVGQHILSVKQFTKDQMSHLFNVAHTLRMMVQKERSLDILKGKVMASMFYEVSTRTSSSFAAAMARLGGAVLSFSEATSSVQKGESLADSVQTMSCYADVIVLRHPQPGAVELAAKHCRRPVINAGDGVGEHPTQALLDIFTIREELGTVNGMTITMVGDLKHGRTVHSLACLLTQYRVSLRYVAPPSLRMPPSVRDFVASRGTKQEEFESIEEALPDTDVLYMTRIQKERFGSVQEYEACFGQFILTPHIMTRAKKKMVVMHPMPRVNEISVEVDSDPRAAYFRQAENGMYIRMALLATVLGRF
Acot8, sequence (P58137 whole entry): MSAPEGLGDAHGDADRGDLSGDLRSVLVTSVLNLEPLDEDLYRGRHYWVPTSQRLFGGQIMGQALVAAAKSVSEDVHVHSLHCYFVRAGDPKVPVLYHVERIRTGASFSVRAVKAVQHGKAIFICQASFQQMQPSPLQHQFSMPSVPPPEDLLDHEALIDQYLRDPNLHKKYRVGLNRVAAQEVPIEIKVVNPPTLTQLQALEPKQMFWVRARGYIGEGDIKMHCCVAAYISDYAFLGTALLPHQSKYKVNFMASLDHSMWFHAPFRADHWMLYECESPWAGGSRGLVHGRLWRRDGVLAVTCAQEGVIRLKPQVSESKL
Acsl4, sequence (Q9QUJ7 whole entry): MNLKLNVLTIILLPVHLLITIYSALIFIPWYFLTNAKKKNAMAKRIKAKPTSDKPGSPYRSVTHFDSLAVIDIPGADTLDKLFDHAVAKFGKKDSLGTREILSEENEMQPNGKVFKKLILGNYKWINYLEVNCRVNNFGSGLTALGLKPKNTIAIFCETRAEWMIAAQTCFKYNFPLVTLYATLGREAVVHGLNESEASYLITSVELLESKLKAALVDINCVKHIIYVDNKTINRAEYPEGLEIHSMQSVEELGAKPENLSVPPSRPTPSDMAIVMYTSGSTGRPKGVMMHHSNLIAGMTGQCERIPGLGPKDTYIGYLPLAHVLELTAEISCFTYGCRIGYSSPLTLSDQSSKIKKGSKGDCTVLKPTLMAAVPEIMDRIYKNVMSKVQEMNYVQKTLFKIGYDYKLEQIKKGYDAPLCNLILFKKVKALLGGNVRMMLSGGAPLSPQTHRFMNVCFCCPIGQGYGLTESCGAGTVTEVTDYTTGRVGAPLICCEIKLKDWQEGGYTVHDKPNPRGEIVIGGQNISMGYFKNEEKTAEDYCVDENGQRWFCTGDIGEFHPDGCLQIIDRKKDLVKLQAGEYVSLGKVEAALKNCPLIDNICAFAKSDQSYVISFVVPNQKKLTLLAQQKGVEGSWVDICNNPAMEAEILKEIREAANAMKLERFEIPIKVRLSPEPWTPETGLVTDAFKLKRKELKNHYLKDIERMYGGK
Srrt, sequence (Q99MR6 2-875 limits assumed): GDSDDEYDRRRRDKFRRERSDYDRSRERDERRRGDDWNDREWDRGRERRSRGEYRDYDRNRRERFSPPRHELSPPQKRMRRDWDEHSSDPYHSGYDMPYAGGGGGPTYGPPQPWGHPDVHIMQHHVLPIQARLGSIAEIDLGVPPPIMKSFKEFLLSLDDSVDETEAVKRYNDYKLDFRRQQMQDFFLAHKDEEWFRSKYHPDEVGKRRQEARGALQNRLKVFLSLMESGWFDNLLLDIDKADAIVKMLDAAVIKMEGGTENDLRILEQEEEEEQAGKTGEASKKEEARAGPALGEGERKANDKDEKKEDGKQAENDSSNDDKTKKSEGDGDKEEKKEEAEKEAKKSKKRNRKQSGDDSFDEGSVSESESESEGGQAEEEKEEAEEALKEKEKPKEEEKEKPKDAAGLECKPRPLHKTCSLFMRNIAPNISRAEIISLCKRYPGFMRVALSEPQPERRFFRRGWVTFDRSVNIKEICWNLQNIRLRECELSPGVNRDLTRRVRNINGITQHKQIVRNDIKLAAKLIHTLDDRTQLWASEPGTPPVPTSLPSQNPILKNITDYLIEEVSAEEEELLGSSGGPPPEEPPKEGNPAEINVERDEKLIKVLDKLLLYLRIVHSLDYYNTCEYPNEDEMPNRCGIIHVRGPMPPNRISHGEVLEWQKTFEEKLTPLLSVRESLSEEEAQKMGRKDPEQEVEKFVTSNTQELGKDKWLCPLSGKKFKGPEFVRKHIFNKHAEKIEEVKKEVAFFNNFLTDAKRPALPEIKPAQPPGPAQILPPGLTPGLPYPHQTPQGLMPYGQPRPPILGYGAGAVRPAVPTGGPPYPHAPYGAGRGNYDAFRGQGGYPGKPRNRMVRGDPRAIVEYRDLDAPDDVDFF
Tpm4, sequence (Q6IRU2 2-248 limits assumed): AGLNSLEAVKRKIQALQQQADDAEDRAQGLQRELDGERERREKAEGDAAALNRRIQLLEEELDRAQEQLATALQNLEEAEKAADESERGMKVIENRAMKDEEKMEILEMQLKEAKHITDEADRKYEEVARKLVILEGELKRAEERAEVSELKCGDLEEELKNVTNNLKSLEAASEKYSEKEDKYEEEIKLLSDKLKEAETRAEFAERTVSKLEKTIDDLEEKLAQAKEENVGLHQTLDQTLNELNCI

Question: For TOX (from UniProt Q66JW3 1-526), which Abundance (Cdc23) is on record?
Answer: 6.55e-06

Question: What about the MiST Score (Cdc23) of the same substance?
Answer: 0.872

Question: What about the Reproducibility (Cdc23) of the same substance?
Answer: 0.758

Question: What about the Specificity (Cdc23) of the same substance?
Answer: 0.931

Question: What about the Abundance (Dap3) of the same substance?
Answer: 2.69e-06

Question: And the MiST Score (Dap3)?
Answer: 0.859

Question: And the Reproducibility (Dap3)?
Answer: 0.561

Question: And the Specificity (Dap3)?
Answer: 1

Question: What about the Abundance (Ddx55) of the same substance?
Answer: 2.21e-06

Question: And the MiST Score (Ddx55)?
Answer: 0.863

Question: What about the Reproducibility (Ddx55) of the same substance?
Answer: 0.574

Question: And the Specificity (Ddx55)?
Answer: 1

Question: And the Abundance (Dlgap5)?
Answer: 6.65e-06

Question: What about the MiST Score (Dlgap5) of the same substance?
Answer: 0.876

Question: What about the Reproducibility (Dlgap5) of the same substance?
Answer: 0.81

Question: And the Specificity (Dlgap5)?
Answer: 0.914

Question: What about the Abundance (Taf6) of the same substance?
Answer: 1.15e-06

Question: What about the MiST Score (Taf6) of the same substance?
Answer: 0.864

Question: And the Reproducibility (Taf6)?
Answer: 0.578

Question: What about the Specificity (Taf6) of the same substance?
Answer: 1

Question: And the Abundance (Thoc2)?
Answer: 1.6e-06

Question: And the MiST Score (Thoc2)?
Answer: 0.859

Question: What about the Reproducibility (Thoc2) of the same substance?
Answer: 0.9

Question: And the Specificity (Thoc2)?
Answer: 0.848

Question: What about the Abundance (Tpm4) of the same substance?
Answer: 0.000138

Question: What about the MiST Score (Tpm4) of the same substance?
Answer: 0.859

Question: What about the Reproducibility (Tpm4) of the same substance?
Answer: 0.979

Question: What about the Specificity (Tpm4) of the same substance?
Answer: 0.812

Question: And the Abundance (Tsr1)?
Answer: 5.3e-06

Question: And the MiST Score (Tsr1)?
Answer: 0.862

Question: And the Reproducibility (Tsr1)?
Answer: 0.962

Question: What about the Specificity (Tsr1) of the same substance?
Answer: 0.824

Question: Tox (from UniProt Q66JW3 1-526) was tested. Which Abundance (Acad9) did it give?
Answer: 7.35e-06

Question: And the MiST Score (Acad9)?
Answer: 0.919

Question: And the Reproducibility (Acad9)?
Answer: 0.846

Question: What about the Specificity (Acad9) of the same substance?
Answer: 0.959

Question: And the Abundance (Acot8)?
Answer: 2.29e-05

Question: And the MiST Score (Acot8)?
Answer: 0.989

Question: And the Reproducibility (Acot8)?
Answer: 0.983

Question: And the Specificity (Acot8)?
Answer: 1

Question: What about the Abundance (Acsl4) of the same substance?
Answer: 2.9e-06

Question: What about the MiST Score (Acsl4) of the same substance?
Answer: 0.968

Question: What about the Reproducibility (Acsl4) of the same substance?
Answer: 0.914

Question: And the Specificity (Acsl4)?
Answer: 1

Question: What about the Abundance (Cad) of the same substance?
Answer: 2.65e-07

Question: What about the MiST Score (Cad) of the same substance?
Answer: 0.906

Question: And the Reproducibility (Cad)?
Answer: 0.714

Question: What about the Specificity (Cad) of the same substance?
Answer: 1

Question: What about the Abundance (Cdadc1) of the same substance?
Answer: 0.00034

Question: And the MiST Score (Cdadc1)?
Answer: 0.95

Question: And the Reproducibility (Cdadc1)?
Answer: 0.882

Question: And the Specificity (Cdadc1)?
Answer: 0.988

Question: And the Abundance (Dlst)?
Answer: 0.000104

Question: And the MiST Score (Dlst)?
Answer: 0.934

Question: What about the Reproducibility (Dlst) of the same substance?
Answer: 0.941

Question: What about the Specificity (Dlst) of the same substance?
Answer: 0.938

Question: And the Abundance (Eif5)?
Answer: 1.08e-05

Question: What about the MiST Score (Eif5) of the same substance?
Answer: 0.985

Question: What about the Reproducibility (Eif5) of the same substance?
Answer: 0.971

Question: What about the Specificity (Eif5) of the same substance?
Answer: 1

Question: What about the Abundance (Fubp1) of the same substance?
Answer: 4.54e-06

Question: What about the MiST Score (Fubp1) of the same substance?
Answer: 0.984

Question: What about the Reproducibility (Fubp1) of the same substance?
Answer: 0.966

Question: What about the Specificity (Fubp1) of the same substance?
Answer: 1

Question: And the Abundance (Fxr1)?
Answer: 1.59e-05

Question: What about the MiST Score (Fxr1) of the same substance?
Answer: 0.915

Question: What about the Reproducibility (Fxr1) of the same substance?
Answer: 0.924

Question: What about the Specificity (Fxr1) of the same substance?
Answer: 0.919

Question: And the Abundance (Hcfc1)?
Answer: 4.9e-07

Question: What about the MiST Score (Hcfc1) of the same substance?
Answer: 0.964

Question: And the Reproducibility (Hcfc1)?
Answer: 0.901

Question: What about the Specificity (Hcfc1) of the same substance?
Answer: 1

Question: What about the Abundance (Jade2) of the same substance?
Answer: 4.26e-06

Question: And the MiST Score (Jade2)?
Answer: 0.937

Question: What about the Reproducibility (Jade2) of the same substance?
Answer: 0.815

Question: And the Specificity (Jade2)?
Answer: 1

Question: And the Abundance (Mrpl46)?
Answer: 3.3e-05

Question: What about the MiST Score (Mrpl46) of the same substance?
Answer: 0.982

Question: What about the Reproducibility (Mrpl46) of the same substance?
Answer: 0.962

Question: What about the Specificity (Mrpl46) of the same substance?
Answer: 1

Question: What about the Abundance (Myef2) of the same substance?
Answer: 3.8e-06

Question: What about the MiST Score (Myef2) of the same substance?
Answer: 0.993

Question: And the Reproducibility (Myef2)?
Answer: 0.998

Question: And the Specificity (Myef2)?
Answer: 1

Question: What about the Abundance (Ppa1) of the same substance?
Answer: 8.43e-06

Question: What about the MiST Score (Ppa1) of the same substance?
Answer: 0.994

Question: What about the Reproducibility (Ppa1) of the same substance?
Answer: 0.999

Question: And the Specificity (Ppa1)?
Answer: 1

Question: And the Abundance (Pusl1)?
Answer: 1.19e-05

Question: What about the MiST Score (Pusl1) of the same substance?
Answer: 0.925

Question: And the Reproducibility (Pusl1)?
Answer: 0.776

Question: And the Specificity (Pusl1)?
Answer: 1

Question: And the Abundance (Rpl36; Gm8973)?
Answer: 0.00269

Question: And the MiST Score (Rpl36; Gm8973)?
Answer: 0.928

Question: And the Reproducibility (Rpl36; Gm8973)?
Answer: 0.855

Question: And the Specificity (Rpl36; Gm8973)?
Answer: 0.969

Question: What about the Abundance (Sdcbp) of the same substance?
Answer: 5.96e-05

Question: And the MiST Score (Sdcbp)?
Answer: 0.957

Question: What about the Reproducibility (Sdcbp) of the same substance?
Answer: 0.88

Question: What about the Specificity (Sdcbp) of the same substance?
Answer: 1

Question: And the Abundance (Srrt)?
Answer: 2.3e-06

Question: What about the MiST Score (Srrt) of the same substance?
Answer: 0.913

Question: What about the Reproducibility (Srrt) of the same substance?
Answer: 0.953

Question: And the Specificity (Srrt)?
Answer: 0.903

Question: What about the Abundance (Zfp219) of the same substance?
Answer: 8.26e-06

Question: And the MiST Score (Zfp219)?
Answer: 0.902

Question: And the Reproducibility (Zfp219)?
Answer: 0.836

Question: What about the Specificity (Zfp219) of the same substance?
Answer: 0.94
